T1: hCTLA4-hFc (human, UniProt P16410 36-161)
T1 construct: also called hCTLA4-Fc protein; biotinylated hCTLA4-hFc; not shown: hFc (human Fc)
T1 sequence (looked up): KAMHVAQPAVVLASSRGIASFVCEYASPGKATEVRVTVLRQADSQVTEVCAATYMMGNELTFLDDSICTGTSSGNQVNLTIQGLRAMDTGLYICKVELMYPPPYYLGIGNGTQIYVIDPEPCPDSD

T2: hCTLA4-mFc fusion protein (human, UniProt P16410 36-161)
T2 construct: Captured on AMC (anti-mouse Fc capture) sensors in the Octet assay; not shown: mFc (mouse Fc)
T2 sequence (looked up): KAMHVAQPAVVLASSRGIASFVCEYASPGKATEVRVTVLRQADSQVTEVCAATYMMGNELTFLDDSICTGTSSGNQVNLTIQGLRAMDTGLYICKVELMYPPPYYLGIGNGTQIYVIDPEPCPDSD

T3: monkey CTLA4-Fc (SinoBiological, catalog #90213-C02H) (monkey, UniProt G7PL88 36-161, Probably biotin-labeled (detected with HRP-streptavidin). Fused to an Fc that is not given in letters.)
T3 construct: Detected with streptavidin, so read as biotin-labeled like the mouse protein
T3 sequence: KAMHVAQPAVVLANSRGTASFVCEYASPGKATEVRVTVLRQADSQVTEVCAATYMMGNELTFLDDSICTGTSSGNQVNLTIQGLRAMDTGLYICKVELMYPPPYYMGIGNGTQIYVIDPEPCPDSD

T4: human CTLA4 on the cell surface (human, UniProt P16410 36-223)
T4 construct: whole, on cells; also called CTLA4 on the surface of human T cells
T4 sequence (looked up): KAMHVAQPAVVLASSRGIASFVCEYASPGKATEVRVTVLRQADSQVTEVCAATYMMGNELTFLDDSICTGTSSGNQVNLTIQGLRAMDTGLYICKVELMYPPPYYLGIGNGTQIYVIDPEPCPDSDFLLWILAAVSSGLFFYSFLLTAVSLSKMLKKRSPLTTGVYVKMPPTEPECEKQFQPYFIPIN


Legend:
hCTLA4-hFc [1] = biological target: T1, hCTLA4-hFc; assay: competition ELISA: biotin-labeled CTLA4-hFc pre-incubated with graded chimeric antibody, captured on coated Ipilimumab (2 ug/mL)
Method: The plates were washed three times with PBST and incubated with 1/1000 diluted HRP-labeled streptavidin (BD, catalog #554066) for 1 hour at room temperature. The plates were washed and developed by adding TMB.

[2] = biological target: T2, hCTLA4-mFc fusion protein; assay: BLI (Octet-96), CTLA4-mFc on AMC sensor, antibody 3-200 nM, 1:1 global fit
Method: The kinetic constants (kassoc and kdissoc) of binding of the antibody and the antigen were measured using the biomolecular interaction system Octet-96 (Pall Life Sciences, S-000959), and the equilibrium binding constant KD was further calculated. […] Specifically, AMC sensors were pre-wet in the buffer (PBS containing 0.02% Tween-20 and 0.1% BSA) for 10 minutes and then equilibrated in CTLA4-mFc sample buffer for 5 minutes to such that the CTLA4-mFc proteins were coupled to the surfaces of sensors. The CTLA4-mFc-coupled AMC sensors were first equilibrated in the buffer for 2 minutes and then incubated for 5 minutes in buffer containing different concentrations of antibody (3-200 nM) to measure the binding of antibodies to the CTLA4-mFc protein. Finally, the antigen and antibody-bound sensors were repositioned in the sample buffer and waited for 10 minutes to measure the dissociation of antibodies from the CTLA4-mFc proteins. The measured data were globally fitted using a 1:1 model to obtain kinetic constants of binding and dissociation. On this basis, an equilibrium binding constant KD was further obtained.

hCTLA4-hFc [3] = biological target: T1, hCTLA4-hFc; assay: blocking ELISA, coated antibody, biotin hCTLA4-hFc, competitor hCD86-Fc
Method: (§1) The purified antibodies were coated on 96-well plates (Corning, catalog #9018) followed by incubation overnight at 4° C., and were blocked with 5% skimmed milk powder (Oxoid, catalog #LP0031B) for 2 hours at 37° C. […] The plates were washed with PBST and incubated with HRP-labeled streptavidin (BD, catalog #554066) for 1 hour at room temperature. The plates were washed and developed by adding TMB.

[4] = biological target: T5, biotin-labeled mouse CTLA4-His (SinoBiological, catalog #50503-M08H) (mouse, UniProt P09793 36-162, biotin-labeled (site not stated)); assay: ELISA, coated antibody, biotin mouse CTLA4-His
T5 construct: not shown: His tag
Method: (§2) Species cross reactions of the purified antibodies were detected using ELISA. The quantified purified antibodies were coated on 96-well plates (Corning, catalog #9018) followed by incubation overnight at 4° C., and were blocked with 5% skimmed milk powder (Oxoid, catalog #LP0031B) for 2 hours at 37° C. The biotin-labeled mouse CTLA4-His (SinoBiological, catalog #50503-M08H) or monkey CTLA4-Fc (SinoBiological, catalog #90213-C02H) was added to the plates and incubated for 1 hour at room temperature. The plates were washed three times with PBST and incubated with 1/1000 diluted HRP-labeled streptavidin (BD, catalog #554066) for 1 hour at room temperature. The plates were washed and developed by adding TMB.

[5] = biological target: T3, monkey CTLA4-Fc (SinoBiological, …); assay: ELISA, coated antibody, monkey CTLA4-Fc
Method: as §2

hCTLA4-hFc [6] = biological target: T1, hCTLA4-hFc; assay: ELISA, coated hCTLA4-hFc
Method: ELISA was used for detecting the binding of purified antibodies to CTLA4-hFc. […] The plates were washed with PBST (PBS containing 0.05% of Tween-20) three times, and were blocked with 5% skimmed milk powder (Oxoid, catalog #LP0031B) for 2 hours at 37° C. The plates were washed three times with PBST and were incubated for 1 hour at room temperature with antibodies to be detected. The plates were washed three times and incubated for 1 hour at room temperature with 1/5000 diluted HRP-labeled goat anti-mouse IgG secondary antibodies (Invitrogen, catalog #31432). The plates were washed with PBST and were developed by adding TMB.

hCTLA4-hFc [7] = biological target: T1, hCTLA4-hFc; assay: blocking ELISA, coated antibody, biotin hCTLA4-hFc, competitor hCD80-Fc
Method: as §1

[8] = biological target: T4, human CTLA4 on the cell surface; assay: FACS on 293T-hCTLA4 cells
Method: The purified antibodies to be detected were added to wells at a certain concentration (50 μL/well) and incubated for 1 hour at 4° C. The cells were washed three times with buffer and were incubated for 0.5 hour at 4° C. with PE-labeled fluorescent secondary antibodies. The cells were washed three times with FACS buffer and re-suspended to 200 μL/well. The fluorescence signals were detected using Attune Nxt flow cytometer (Thermo Fisher).

Row | Binder | IC50 (read off the curve) (hCTLA4-hFc [1]) [ng/mL] | Kd [2] [nM] | IC50 (hCTLA4-hFc [3]) [µg/mL] | ELISA (OD) [4] [OD] | ELISA (OD) [5] [OD] | EC50 (hCTLA4-hFc [6]) [nM] | IC50 (hCTLA4-hFc [7]) [µg/mL] | EC50 [8] [nM]
1 | human-mouse CTLA4 chimeric antibody 9B8-H2-B6-G5 (antibody, V domains shown) VH: QVQLQQPGSELVRPGASVKLSCKASGYTFTNYWVHWVKQRPGQGLEWIGNIFPGSDTSNYDEKFISKATLTVDTSSSAAYMQLNSLTSEDSAVYYCARLAYFTNYGGAMDYWGRGTSVTVSS VL: DIVLTQSPASLVVSLGQRATISCRASKSVSTSAYNYMHWYQQKPGQPPKLLIYLASNLESGVPARFSGSGSGTDFTLNVHPVEEEDAATYYCQLSRELPYTFGGGTKLEIK | ~200 | 0.0868 |  |  |  |  |  | 
2 | human-mouse CTLA4 chimeric antibody 4H9-G5-D5-B1 (antibody, V domains shown) VH: EVKLDETGGGLVQPGRSMKLSCVVSGFTFSDNWMNWVRQSPEKGLEWVAQIRNKPYNFETYYSDSVKGRFTISRDDSKSTVYLQMNNLRAEDMGVYYCTGGFTYWGQGTLVTVSA VL: DIQMTQSPASLSASVGETVTITCGASENIYGGLNWYQRKQGKSPQLLIYGATNLAEGMSSRFSGSGSGRQYSLKISSLHPDDVATYYCQNVLSSPWTFGGGTKLEIK | ~30 | < 0.001 |  |  |  |  |  | 
3 | murine anti-CTLA4 monoclonal antibody 9B8-H2-B6-G5 (antibody, V domains shown, Mouse hybridoma antibody purified on Protein A) VH: QVQLQQPGSELVRPGASVKLSCKASGYTFTNYWVHWVKQRPGQGLEWIGNIFPGSDTSNYDEKFISKATLTVDTSSSAAYMQLNSLTSEDSAVYYCARLAYFTNYGGAMDYWGRGTSVTVSS VL: DIVLTQSPASLVVSLGQRATISCRASKSVSTSAYNYMHWYQQKPGQPPKLLIYLASNLESGVPARFSGSGSGTDFTLNVHPVEEEDAATYYCQLSRELPYTFGGGTKLEIK |  |  | 1.08 | 0.06 | 0.37 | 0.025 | 0.00292 | 1.08
4 | murine anti-CTLA4 monoclonal antibody 19C5-G11-A7-G5 (antibody, V domains shown, Mouse hybridoma antibody purified on Protein A) VH: EVQLQQSGTVLARPGASVKMSCKASGYSFTSYWIHWVKQRPGQGLEWIGAFYPGNSDTNYNQNFKGKAKLTAVTSASTAYMELSSLTNEDSAVYYCTYYYRSSYAMDNWGQGTSVTVSS VL: DIQMNQSPSSLSASLGDTITITCHASQNINDWLSWYQQKPGNIPKLLIYKASNLHTGVPSRFSGSGSGTGFTLTISSLQPEDIATYYCQQGQSYPLTFGSGTKLEIK |  |  | 3.15 | 0.06 | 0.64 | 0.036 | 0.0357 | 
5 | murine anti-CTLA4 monoclonal antibody 4H9-G5-D5-B1 (antibody, V domains shown, Mouse hybridoma antibody purified on Protein A) VH: EVKLDETGGGLVQPGRSMKLSCVVSGFTFSDNWMNWVRQSPEKGLEWVAQIRNKPYNFETYYSDSVKGRFTISRDDSKSTVYLQMNNLRAEDMGVYYCTGGFTYWGQGTLVTVSA VL: DIQMTQSPASLSASVGETVTITCGASENIYGGLNWYQRKQGKSPQLLIYGATNLAEGMSSRFSGSGSGRQYSLKISSLHPDDVATYYCQNVLSSPWTFGGGTKLEIK |  |  | 7.24 | 0.05 | 2.79 | 0.023 | 0.0691 | 1.35

Reference: patent US20220411506A1 (SUZHOU GALAXY BIOPHARMA, published 2022)
